Assay results: paper PMC8408477

Key:
GST-RhBBX28 [1] = target: T1, GST-RhBBX28 (Rosa hybrida, UniProt A0A8K1NC92 1-241); assay: competition
T1 sequence: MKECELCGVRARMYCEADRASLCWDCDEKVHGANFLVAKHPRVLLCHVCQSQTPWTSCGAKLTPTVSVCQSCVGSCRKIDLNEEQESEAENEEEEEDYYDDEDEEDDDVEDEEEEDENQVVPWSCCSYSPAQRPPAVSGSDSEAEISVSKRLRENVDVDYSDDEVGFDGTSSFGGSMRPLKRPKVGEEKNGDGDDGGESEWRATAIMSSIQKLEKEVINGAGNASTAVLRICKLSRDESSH

GST-RhBBX28 [2] = target: T1, GST-RhBBX28; assay: EMSA
GST-RhBBX28 [3] = target: T1, GST-RhBBX28; assay: EMSA; remark: listed apart in the source
GST-RhPIF8 [4] = target: T2, GST-RhPIF8 (Rosa hybrida, UniProt A0A8K1NC13 1-452); assay: EMSA
T2 sequence: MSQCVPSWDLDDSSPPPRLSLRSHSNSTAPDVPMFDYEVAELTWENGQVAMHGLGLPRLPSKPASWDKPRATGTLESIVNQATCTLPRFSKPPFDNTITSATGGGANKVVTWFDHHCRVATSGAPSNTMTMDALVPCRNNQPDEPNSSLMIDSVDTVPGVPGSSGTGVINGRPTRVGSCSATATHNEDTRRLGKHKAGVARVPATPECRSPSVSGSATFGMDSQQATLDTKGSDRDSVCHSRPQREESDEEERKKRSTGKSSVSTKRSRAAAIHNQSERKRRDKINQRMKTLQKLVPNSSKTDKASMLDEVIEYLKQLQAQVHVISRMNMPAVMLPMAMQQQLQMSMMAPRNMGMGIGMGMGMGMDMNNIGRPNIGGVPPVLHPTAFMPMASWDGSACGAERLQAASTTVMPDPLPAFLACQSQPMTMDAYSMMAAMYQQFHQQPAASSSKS

GST-RhPIF8 [5] = target: T2, GST-RhPIF8; assay: competition

B1: RhSDH1 mProbe (dsDNA)
DNA 1: GTCAACTCCTAAAAAATCATGAGTCTTCTATAGGAATCAAAAAAAAACATTCTGCA
DNA 2: TGCAGAATGTTTTTTTTTGATTCCTATAGAAGACTCATGATTTTTTAGGAGTTGAC
GST-RhBBX28 [1]
  binding result: no binding

B2: RhSDH1 probe2 (dsDNA)
DNA 1: AGGTTTTGCAACTAGAAACGTGTTAGAAGAATAATCACAG
DNA 2: CTGTGATTATTCTTCTAACACGTTTCTAGTTGCAAAACCT
GST-RhBBX28 [2]
  binding result: no binding

B3: RhSDH1 probe (dsDNA)
DNA 1: GTCAACTCCTCACGTTTCATGAGTCTTCTATAGGAATCAACACGTTACATTCTGCA
DNA 2: TGCAGAATGTAACGTGTTGATTCCTATAGAAGACTCATGAAACGTGAGGAGTTGAC
GST-RhBBX28 [3]
  binding result: binds

B4: RhBBX28 probe (dsDNA)
DNA 1: GCCTAACACATGGCCACCATACCACCACGACCCTGC
DNA 2: GCAGGGTCGTGGTGGTATGGTGGCCATGTGTTAGGC
GST-RhPIF8 [4]
  binding result: binds

B5: RhBBX28 mProbe (dsDNA)
DNA 1: GCCTAAAAAAAAACCACCATACCACAAAAAACCTGC
DNA 2: GCAGGTTTTTTGTGGTATGGTGGTTTTTTTTTAGGC
GST-RhPIF8 [5]
  binding result: no binding
